Measurements reported in PMC9130890 (2022).

Molecular target: autologous SHIV_(1157ipd3N4) gp120 monomer (SHIV_(1157ipd3N4))
Experiment: BLI

B1: unmutated common ancestor (UCA) of the J038 lineage (antibody, V domains shown)
VH: QLQLQESGPGLVKPSETLSLTCAVSGGSISSNYWSWIRQPPGKGLEWIGRISGSGGSTDYNPSLKSRVTISTDTSKNQFSLKLSSVTAADTAVYYCAREVAEDDYGYYQPYFDYWGQGVLVTVSS
VL: DIQMTQSPSSLSASVGDRVTITCRASQGISSYLAWYQQKPGKAPKLLIYAASSLQSGVPSRFSGSGSGTDFTLTISSLQPEDFATYYCQQYNSLPLTFGGGTKVEIK
Which Kd does the source give for B1 here?
The Kd was 37.8 nM.

What about the koff of the same binder?
The koff was 0.0023 s⁻¹.
